According to patent US6037145:

Target: Z-Phe-Leu-Glu-4-nitranilide

recombinant V8 protease (V8D) (enzyme) gave an enzyme activity after refolding of 30 µg/mL.
